In patent WO2004074491A2 (dated 2004):

Molecular target: T1, K88 pilus protein antigen (also known as the F4 fimbriae adhesin) (Escherichia coli (enterotoxigenic))
T1 construct: Used as ELISA coat and as the ligand amine-coupled to the CM5 SPR chip; also called K88 antigen; K88 pili
Experiment: SPR (Biacore), K88 pili coupled to a CM5 chip, purified antibody as analyte

T1 sequence (P14190 22-283): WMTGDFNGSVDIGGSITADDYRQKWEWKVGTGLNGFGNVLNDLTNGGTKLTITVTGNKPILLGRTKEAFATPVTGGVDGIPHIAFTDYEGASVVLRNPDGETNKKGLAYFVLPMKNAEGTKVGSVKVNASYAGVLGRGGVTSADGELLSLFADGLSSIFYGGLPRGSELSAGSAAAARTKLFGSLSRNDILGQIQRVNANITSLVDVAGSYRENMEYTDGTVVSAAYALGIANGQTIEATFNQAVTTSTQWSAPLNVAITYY

Row | Binder | Kd
1 | plant-produced anti-K88 antibody 36/41 with ER retention signal (corn, pTMR554) (antibody) chain 1: EVQLQQSGPELVKTGASVKISCKASDYSLTDYYMHWVKQSHGESLEWIGYINFYNGATNYNQKFKGKATFTVDTSSSTVYMQFNSLTSEDSAVYYCVREALLRNYAMDYWGQGTSVTVSSAKTTPPSVYPLAPGSAAQTNSMVTLGCLVKGYFPEPVTVTWNSGSLSSGVHTFPAVLQSDLYTLSSSVTVPSSTWPSETVTCNVAHPASSTKVDKKIVPRDCGCKPCICTVPEVSSVFIFPPKPKDVLTITLTPKVTCVVVDISKDDPEVQFSWFVDDVEVHTAQTQPREEQFNSTFRSVSELPIMHQDWLNGKEFKCRVNSAAFPAPIEKTISKTKGRPKAPQVYTIPPPKEQMAKDKVSLTCMITDFFPEDITVEWQWNGQPAENYKNTQPIMDTDGSYFVYSKLNVQKSNWEAGNTFTCSVLHEGLHNHHTEKSLSHSPGKSEKDEL chain 2: ENVLTQSPAIMSASPGEKVTMTCRASSSVSSRYLHWYQQKSGASPKLWIYSTSNLASGVPARFSGSGSGTSYSLTISSVEAEDAATYYCQQYSGYPWTFGGGTKLEIKRADAAPTVSIFPPSSEQLTSGGASVVCFLNNFYPKDINVKWKIDGSERQNGVLNSWTDQDSKDSTYSMSSTLTLTKDEYERHNSYTCEATHKTSTSPIVKSFNRNECSEKDEL | 0.03 nM
2 | anti-K88 monoclonal IgG1 antibody 36/41 purified from hybridoma cells (antibody) chain 1: EVQLQQSGPELVKTGASVKISCKASDYSLTDYYMHWVKQSHGESLEWIGYINFYNGATNYNQKFKGKATFTVDTSSSTVYMQFNSLTSEDSAVYYCVREALLRNYAMDYWGQGTSVTVSSAKTTPPSVYPLAPGSAAQTNSMVTLGCLVKGYFPEPVTVTWNSGSLSSGVHTFPAVLQSDLYTLSSSVTVPSSTWPSETVTCNVAHPASSTKVDKKIVPRDCGCKPCICTVPEVSSVFIFPPKPKDVLTITLTPKVTCVVVDISKDDPEVQFSWFVDDVEVHTAQTQPREEQFNSTFRSVSELPIMHQDWLNGKEFKCRVNSAAFPAPIEKTISKTKGRPKAPQVYTIPPPKEQMAKDKVSLTCMITDFFPEDITVEWQWNGQPAENYKNTQPIMDTDGSYFVYSKLNVQKSNWEAGNTFTCSVLHEGLHNHHTEKSLSHSPGK chain 2: ENVLTQSPAIMSASPGEKVTMTCRASSSVSSRYLHWYQQKSGASPKLWIYSTSNLASGVPARFSGSGSGTSYSLTISSVEAEDAATYYCQQYSGYPWTFGGGTKLEIKRADAAPTVSIFPPSSEQLTSGGASVVCFLNNFYPKDINVKWKIDGSERQNGVLNSWTDQDSKDSTYSMSSTLTLTKDEYERHNSYTCEATHKTSTSPIVKSFNRNEC | 0.03 nM
